Peptide text beside a SMILES is read from it. * marks the point of attachment. Cbz = O=C(OCc1ccccc1)*

From patent US20120308570A1, “METHODS FOR TREATING DISEASES” (priority 2009, published 2012) come the findings set out here.

In assay [1] the test system is iNOS degradation in Ssb-1T/+ and Ssb-2T/+ BMDM. The assay is described as follows: iNOS degradation post-wash in SSB transgenic BMDM (Western blot). The format is cell-based, mouse. The following applies: MG-132 10 μM post-wash. The method, then: FIG. 11. SSB-1 and SSB-2 regulation of iNOS expression is dependent on the proteasome. BMDM from (A) littermate controls (Ssb-1^+/+) and SSB-1-transgenic mice (Ssb-1^T/+) or (B) Ssb-1^+/+ and SSB-2-transgenic mice (Ssb-2^T/+) were incubated with IFNγ and LPS (20 ng/ml) for 16 h, washed, replenished with fresh medium with (+) or without (−) the proteasomal inhibitor MG-132 (10 μM) and lysed at the indicated times post-wash. Proteins were separated by SDS-PAGE and analysed by Western blot using anti-iNOS antibodies. Equivalent protein loading was confirmed by stripping and reprobing the membrane with anti-tubulin antibodies.
Bone marrow-derived macrophages were generated as described and re-plated at 1.0×10^6 cells/well on 6-well plates (Costar) in DME containing 10% FCS and 20% L-cell conditioned media. Cells were incubated with IFNγ and LPS as described, and lysed in KALB lysis buffer (Nicholson et al., 1995) containing protease inhibitors (Complete Cocktail tablets, Roche), 1 mM phenylmethylsulphonyl fluoride, 1 mM Na3VO4 and 1 mM NaF. Proteins were immunoprecipitated using anti-Flag antibody conjugated to Sepharose (M2; EASTMAN KODAK). Proteins were separated by sodium dodecyl sulphatepolyacrylamide gel electrophoresis (SDS-PAGE) under reducing conditions and electrophoretically transferred to Biotrace PVDF membranes (Pall Corp. Ann Arbor, Mich.). […]

The target in assay [2] is T1, full-length iNOS protein (endogenous, from LPS/IFNγ-treated mouse bone marrow-derived macrophages) (mouse, UniProt P29477 1-1144).
T1 construct: Not purified: present in macrophage lysates; Detected by Western blot with anti-iNOS antibody; also called NOS2; inducible nitric oxide synthase
T1 sequence: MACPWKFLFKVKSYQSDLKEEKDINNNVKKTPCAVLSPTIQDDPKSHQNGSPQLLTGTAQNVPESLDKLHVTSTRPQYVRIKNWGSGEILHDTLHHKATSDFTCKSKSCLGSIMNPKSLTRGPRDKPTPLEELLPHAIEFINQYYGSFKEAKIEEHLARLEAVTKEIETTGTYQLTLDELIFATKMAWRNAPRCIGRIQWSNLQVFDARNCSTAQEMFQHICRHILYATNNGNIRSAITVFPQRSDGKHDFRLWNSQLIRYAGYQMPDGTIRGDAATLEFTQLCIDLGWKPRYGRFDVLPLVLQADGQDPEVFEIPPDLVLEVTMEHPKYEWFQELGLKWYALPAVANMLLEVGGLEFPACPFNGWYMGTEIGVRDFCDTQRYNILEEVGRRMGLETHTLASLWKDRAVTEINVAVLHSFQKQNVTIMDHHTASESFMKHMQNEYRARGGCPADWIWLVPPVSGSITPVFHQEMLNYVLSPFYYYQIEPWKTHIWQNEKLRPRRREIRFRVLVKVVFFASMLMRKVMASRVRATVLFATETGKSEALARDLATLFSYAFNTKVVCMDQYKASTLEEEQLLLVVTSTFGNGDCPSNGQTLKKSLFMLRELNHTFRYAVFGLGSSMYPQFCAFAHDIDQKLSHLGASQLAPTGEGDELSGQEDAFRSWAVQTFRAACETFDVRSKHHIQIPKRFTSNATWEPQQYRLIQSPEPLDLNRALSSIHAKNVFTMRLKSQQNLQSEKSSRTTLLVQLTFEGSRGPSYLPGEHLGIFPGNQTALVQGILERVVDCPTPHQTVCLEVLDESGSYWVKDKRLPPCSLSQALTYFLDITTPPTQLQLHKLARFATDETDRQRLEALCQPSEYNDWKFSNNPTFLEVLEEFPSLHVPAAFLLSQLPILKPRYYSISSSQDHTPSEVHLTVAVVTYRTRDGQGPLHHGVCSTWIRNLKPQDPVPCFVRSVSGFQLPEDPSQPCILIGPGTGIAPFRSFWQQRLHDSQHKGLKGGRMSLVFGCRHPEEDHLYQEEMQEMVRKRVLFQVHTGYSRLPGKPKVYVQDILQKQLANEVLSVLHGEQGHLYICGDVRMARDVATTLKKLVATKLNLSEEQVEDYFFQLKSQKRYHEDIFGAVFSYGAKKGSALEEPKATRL
Briefly: anti-Flag co-immunoprecipitation from mixed 293T and BMDM lysates, anti-iNOS Western blot. From the text:
FIG. 6. Interaction between iNOS and SSB-1, -2, and -4 and SSB-2 residues affecting 10 iNOS binding. (A) iNOS interacts preferentially with SSB-2 and SSB-4. 293T cells were transiently transfected with vector alone or cDNA encoding either Flag-tagged SSB-1, SSB-2, SSB-3 or SSB-4. Cells were lysed, and mixed with BMDM lysates from cells induced to express iNOS. Flag-tagged proteins were immunoprecipitated using anti-Flag antibodies (M2-beads) and separated by SDSPAGE. Co-immunoprecipitation of iNOS was detected by Western blot with anti-iNOS antibodies (upper panel). Membranes were stripped and reprobed with rat anti-Flag antibodies (middle panel). Comparative expression of Flag-tagged proteins in 293T lysates is shown by Western blot (lower panel). (B) SSB-2 residues affecting iNOS binding. Residues in the SSB-2 SPRY domain were mutated to Ala or Phe (for Y120) based on SSB-2 structure and sequence conservation. […] Coimmunoprecipitation of iNOS was detected by Western blot with anti-iNOS antibodies.
To investigate whether other SSB family members were able to interact with iNOS, 293T cells were transiently transfected with cDNA expressing SSB-1, SSB-2, SSB-3 or SSB-4 with an N-terminal Flag-epitopetag. […] SSB proteins were immunoprecipitated using anti-Flag antibodies coupled to Sepharose and association of iNOS analysed by Western blot. […]

Assay [3] addresses T1, full-length iNOS protein (endogenous, …). Briefly: anti-SSB-2 immunoprecipitation from BMDM, anti-iNOS Western blot (FIG. 5B). Here is the method:
FIG. 5. SSB-2 interacts with endogenous full-length iNOS protein. (A) SSB-2 interacts with full-length iNOS and this requires tyrosine 120 in the SPRY domain peptide-binding surface. Bone marrow-derived macrophages (BMDM) from C57BL/6 mice were incubated with 20 ng/ml IFNγ and 1 μg/ml LPS for 16 h, lysed and incubated with NHS-sepharose beads coupled with recombinant SSB-2 or SSB-2-Y120A proteins, or with uncoupled NHS-sepharose beads (CON), for 3 h at 4° C. Associated proteins were then separated by SDS-PAGE and transferred to PVDF membrane. iNOS was detected by Western blot with specific anti-iNOS antibodies (upper panel). Equivalent amounts of SSB-2 and SSB-2-Y120A were confirmed by reprobe with anti-SSB-2 antibodies (lower panel). (B) Interaction between endogenous iNOS and SSB-2 proteins. Bone marrow-derived macrophages from SSB-2-deficient mice (Ssb-2^{-/-}) or wild-type littermate controls (Ssb-2^{+/+}) were incubated with (+) or without (−) 20 ng/ml IFNγ and 20 ng/ml LPS for 16 h, lysed and endogenous SSB-2 proteins immunoprecipitated using rabbit anti-SSB-2 antibody coupled to NHS-Sepharose. Immunoprecipitates were separated by SDS-PAGE and associated iNOS protein detected by Western blot with specific antibodies (upper panel). […]

On to `CC(C)C[C@@H](C=O)NC(=O)[C@H](CC(C)C)NC(=O)[C@H](CC(C)C)NC(=O)OCc1ccccc1` [MG-132] (Cbz-Leu-Leu-Leu-aldehyde), for which the “effect on enhanced iNOS degradation” value in assay [1] is listed as “abrogated”.

B1: Flag-tagged SSB-3 (murine, expressed in 293T cells) (other, mouse)
chain: DYKDDDDKMARRTRSSRAWHFVLSAARRDTDARAVALAGSSNWGYDSDGQHSDSDSDPEYSSLPPSIPSAVPVTGESFCDCEGQNEATFCNSLHTAHRGKDCRCGEEDEDFDWVWDDLNKSSATLLSCDNRKVSFHMEYSCGTAAIRGTKELGDGQHFWEIKMTSPVYGTDMMVGIGTSDVDLDKYHHTFCSLLGRDEDSWGLSYTGLLHHKGDKTSFSSRFGQGSIIGVHLDTWHGTLTFFKNRKCIGVAATRLQNRRFYPMVCSTAAKSSMKVIRSCASSTSLQYLCCYRLRQLRPNSGDTLEGLPLPPGLKQVLHNKLGWVLSMNCNHWKSPVPPPGTATPGAESLETRPCQRKRCRRS
notes: also called SPSB3
As for B1, the binding result in assay [2] is “no binding”.

B2: endogenous SSB-2 protein (mouse bone marrow-derived macrophages) (other)
chain: MGQTALARGSSSTPTSQALYSDFSPPEGLEELLSAPPPDLVAQRHHGWNPKDCSENIDVKEGGLCFERRPVAQSTDGVRGKRGYSRGLHAWEISWPLEQRGTHAVVGVATALAPLQADHYAALLGSNSESWGWDIGRGKLYHQSKGLEAPQYPAGPQGEQLVVPERLLVVLDMEEGTLGYSIGGTYLGPAFRGLKGRTLYPSVSAVWGQCQVRIRYMGERRVEEPQSLLHLSRLCVRHALGDTRLGQISTLPLPPAMKRYLLYK
notes: Immunoprecipitated with rabbit anti-SSB-2 antibody coupled to NHS-Sepharose; also called SPSB2
As for B2, in assay [3], the binding result was “binds”.
